Experiments:
[1] = target: SKN-1 50 amino acid bait construct encoding the lax188(E237K) mutation (C. elegans); assay: two-hybrid
[2] = target: SKN-1 50 amino acid bait construct encoding the lax120(S245L) mutation (C. elegans); assay: two-hybrid

**Q.** For “PGAM-5 (Y2H prey from the cDNA library) (natural protein)”, which percent decrease of the interaction against the wild-type 50-mer bait [1] is on record?
**A.** Its percent decrease of the interaction against the wild-type 50-mer bait is 72%.

**Q.** And the percent decrease of the interaction against the wild-type 50-mer bait [2]?
**A.** The percent decrease of the interaction against the wild-type 50-mer bait was 75%.

Source: article PMC3774140
